Two molecules from US20180185504A1 can be followed below.

For test [1], the target named is mouse PRLR construct with an HA tag on HEK293/mPRLR cells (mouse) (UniProt Q08501). The test is described as follows: FACS on HEK293/mPRLR cells.
The target in test [2] is human prolactin (PRL) (human) (UniProt P01236). The test can be described thus: ELISA: dimeric PRLR (3.38 pM to 200 nM) on plate-coated human PRL (1 µg/mL), HRP anti-Fc-gamma detection. (In general: An ELISA detects its analyte on a solid surface through an enzyme-linked reagent.)
Sequence of human prolactin (PRL) (human) (P01236 29-227 limits assumed): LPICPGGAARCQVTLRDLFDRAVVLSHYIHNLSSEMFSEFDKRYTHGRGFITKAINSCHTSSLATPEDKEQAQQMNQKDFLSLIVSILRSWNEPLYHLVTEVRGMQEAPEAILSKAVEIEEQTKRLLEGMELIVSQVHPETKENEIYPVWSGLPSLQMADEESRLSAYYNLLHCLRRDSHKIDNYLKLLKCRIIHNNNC

Sequence of mouse PRLR construct with an HA tag on HEK293/mPRLR cells (mouse) (Q08501 20-608): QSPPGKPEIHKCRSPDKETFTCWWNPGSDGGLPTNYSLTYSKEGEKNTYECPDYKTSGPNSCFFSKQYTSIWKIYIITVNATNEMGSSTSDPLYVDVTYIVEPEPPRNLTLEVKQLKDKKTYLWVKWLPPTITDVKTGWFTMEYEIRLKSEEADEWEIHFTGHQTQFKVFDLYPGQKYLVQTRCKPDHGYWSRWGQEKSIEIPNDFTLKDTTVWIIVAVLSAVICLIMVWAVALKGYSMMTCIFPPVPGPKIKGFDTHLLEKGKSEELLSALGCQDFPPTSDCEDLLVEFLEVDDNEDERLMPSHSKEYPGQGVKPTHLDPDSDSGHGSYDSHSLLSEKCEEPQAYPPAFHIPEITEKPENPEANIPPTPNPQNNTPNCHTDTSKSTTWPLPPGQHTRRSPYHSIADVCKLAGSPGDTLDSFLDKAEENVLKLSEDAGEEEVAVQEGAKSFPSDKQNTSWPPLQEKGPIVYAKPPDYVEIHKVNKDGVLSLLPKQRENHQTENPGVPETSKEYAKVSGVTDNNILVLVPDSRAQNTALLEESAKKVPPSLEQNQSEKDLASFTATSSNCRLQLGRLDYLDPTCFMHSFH

B1: H1H6801P (antibody, human IgG1, V domains shown)
VH: QVQLQQSGPGLVKPSQTLSLTCVISGDSVSSNTAWNWVRQSPSRGLEWLGRTYYRSKWYNDYAVSVKSRITINPDTSKNQFSLLMNSVTPEDTAVYYCARVVRGLNYFDYWGQGTLVTVSS
VL: DIVMTQSPDSLAVSLGERATINCKSSQSVLYNSNNKNYLAWYQQKPGQPPKLLIYWSSSRESGVPDRFSGSGSGTDFTLTISGLQAEDVAIYYCQQYSTIPYTFGQGTKLEIK
B1 showed an FACS Cell Binding (Fold Above Background) in test [1] of 56 fold.

B2: dimeric form of human PRLR (Example 12 ELISA) (Fc fusion, part only; not given: Dimerising Fc part, part only)
chain, part: QLPPGKPEIFKCRSPNKETFTCWWRPGTDGGLPTNYSLTYHREGETLMHECPDYITGGPNSCHFGKQYTSMWRTYIMMVNATNQMGSSFSDELYVDVTYIVQPDPPLELAVEVKQPEDRKPYLWIKWSPPTLIDLKTGWFTLLYEIRLKPEKAAEWEIHFAGQQTEFKILSLHPGQKYLVQVRCKPDHGYWSAWSPATFIQIPSDFTMND
For orientation: EC50 means the concentration giving half of the maximal effect. High values mean a less potent agent, low ones a more potent agent. As for B2, the concentration for a half-maximal effect (EC50) in test [2] was found to be 4.9 nM.
